# How the values were obtained:
# [1] = Michaelis-Menten kinetics of HiBiT-fused luciferase in yeast lysates; type: biochemical; conditions: fitted Michaelis-Menten model
# Source text: To quantify the activity of nnLuz_v4 relative to the parental nnLuz_WT, genetic fusions were made with the HiBiT tag. The HiBiT tag is a small bioluminescent marker that may be appended onto other proteins, thereby providing a mechanism for measuring relative protein concentration. By fusing the tag onto the C-terminus of luciferase, variability in protein concentration can be normalized across independent samples.
# Yeast strains expressing fusions of nnLuz_WT and nnLuz_v4 with HiBiT were inoculated into YPD medium and cultured at 30° C. with 220 rpm for 18-20 hours. Then 4 ml of each yeast suspension were centrifuged at 5000 g (4° C.) and resuspended in 400 μL of 100 mM MOPS (pH=7.5), 4 mM EDTA, 2 mM TCEP, 1 mM PMSF. […]
# Samples were diluted 25 fold in the same buffer as used for lysis and concentrated to a volume of 200 μL using Amicon Ultra-15 Centrifugal Filter Unit 10 kDa (Millipore). […] Luminescence was measured in Tecan Spark plate-reader with exposure of 500 ms for 15 min. Activity of each variant was normalized to the expression level of HiBiT, as quantified with HiBiT lytic reagent (Promega N3030).
# To quantify luminescence, intensity values of the wells were normalized by the integral values for HiBiT luminescence kinetics. Then, the integral signal for each sample was calculated. […]
# [2] = tested on: yeast cells (P. pastoris); experiment: Stability of luciferase within yeast cells after 10 min incubation at different temperatures; type: cell-based; conditions: then luciferin; for reduction of luminescence after incubation at 40° C.: 10 min at 40° C.; for reduction of luminescence after incubation at 45° C.: 10 min at 45° C.
# Description: To evaluate stability of nnLuz_WT and nnLuz_v4 within yeast cells, strains expressing nnLuz WT or nnLux_v4 were grown on plates for 24 hours, then resuspended in PBS to final OD (600 nm)=5 and 50 μl was placed in wells of a 96-well PCR plate. Different portions of the plate were incubated at different temperatures for 10 minutes using a gradient thermal cycler. The plate were then placed on ice for 5 minutes and 10 μl of 500 μM luciferin (2% DMSO, 10 mM thioglycolic acid, 0.1% DDM in DPBS) were added to each well. Then 25 μl of suspension from each well was transferred to a black 96-well plate containing 0.2 M sodium phosphate buffer with 0.5 M Na2SO4,pH=8.
# [3] = tested on: Pichia pastoris GS115; experiment: Luminescence imaging of transformed yeast after addition of luciferin, hispidin or caffeic acid; type: cell-based
# Description: Integration of plasmids into the genome of Pichia pastoris GS115 was targeted at the GAP promoter locus. Linearized plasmids were used for the transformation of electrically competent yeast cells. Colonies were selected using […] of G418 or 200 mg/ml of hygromycin or 50 mg/ml of zeocin. PCR-based screening of yeast colonies was done by heating up colonies in 10 μl of 20 mM NaOH at 90° C. for 7 min and then using 1 μl of the resulting solution for direct PCR. For luminescence imaging, yeast culture grown on plate was resuspended in 50 μL of 1M sorbitol. 5 μL of the suspension was then added in 3 replicates to YPD agar plates lacking antibiotics. […] Imaging was performed in Fusion Pulse (Vilber, France), with exposure of 0.1 or 5 sec every 3 or 5 min for 1.0-1.5 hours—for caffeic acid treatment, with exposure of 20 sec for 20 mins—for hispidin treatment, with exposure of 0.5 sec every 10 sec for 10 mins in case of luciferin treatment.
# Processing of images was performed using FiJi ImageJ distribution (version 1.53t) 20 and custom Python scripts (Python version 3.8). For luminescence quantification mean values in the region of interest after background subtraction were used. Background subtraction was performed using the following formula: signal=signalraw−(backgroundmean−3*backgroundSD).
# [4] = Enzyme thermostability in cleared E. coli lysates incubated at 22° C.; type: biochemical; conditions: then 100 μM luciferin
# Description: To assess the effect on enzyme thermostability by the amino acid substitutions, lysates of transformed E. coli were prepared by sonication and cleared by centrifugation. The cleared lysates were diluted 1:100 into Tris-buffered saline with 0.01% BSA and 0.1% n-dodecyl β-D-maltoside. 100 μl of each diluted lysate were added to a 96-well PCR plate. Samples were incubated at 22° C. and at various time points aliquots were placed on ice. When all of the samples were processed, 50 μl of each was combined with 50 μl of 100 μM luciferin in Tris-buffered saline with 0.01% BSA and 0.1% n-dodecyl β-D-maltoside. Samples were immediately placed in a GloMax®-Multi+luminometer (Promega) to measure bioluminescence.
# [5] = tested on: HEK293 cells; experiment: Luciferase luminescence by transient expression in HEK293 cells after luciferin addition; type: cell-based; conditions: living HEK293 cells, luciferin 740 μM final concentration
# Description: Production of luminescence by nnLuz_v3 was measure in E. coli lysates by the above method, and in mammalian cells (HEK293 cells). The HEK293 cells were transfected using the FugeneHD transfection reagent (Promega) according to the manufacturer's instructions. Cells were grown overnight under CO2 at 37° C. in 96-well white assay plates. For luminescence measurements, media was removed and replaced with 100 μl of CO2 independent media (Life Technologies 18045) containing 10% FBS. 33 μl of luciferin was added to cells (740 μM final concentration). The luminescence was measured using a GloMax-Multi+luminometer (Promega).
# [6] = Luciferase luminescence in E. coli lysates after luciferin addition; type: biochemical; conditions: 100 μM luciferin, maximal brightness
# Source text: A library of amino acid substitutions was created applying mutagenesis to a gene encoding the luciferase derived from Neonothopanus nambi (SEQ ID NO: 8). pF4Ag shuttle vector (Promega) was used for gene expression in E. coli (T7 promoter-driven expression) and mammalian cells (CMV promoter-driven expression). The pF4Ag vector backbone introduces a C-terminal 3×-FLAG-HiBiT tag. Site-directed mutagenesis was used to substitute consensus amino acids at selected position in the luciferase sequence. Gene expression was performed in the E. coli strain KRX (Promega), which enables rhamnose-inducible expression of T7 RNA polymerase.
# Colonies (in triplicate) were used to inoculate LB broth containing ampicillin ([…]) and cultures grown overnight in 96-well microtiter plates (20 hours, 37° C.). Cultures were diluted into fresh LB containing 0.1% rhamnose and ampicillin and grown for 3 hours at 37° C. 50 μl of the induced culture was lysed for 5 minutes at ambient temperature with a reagent consisting of 25 mM HEPES pH 7.5 and 0.3×PLB (E1941 Promega). 50 μl of lysate was combined with 50 μl luciferin (100 μM) in the lysis buffer and samples were measured for total luminescence using a GloMax®-Multi+luminometer. (Promega).
# [7] = tested on: HEK293NT or HEK293 cell lines; experiment: Pathway luminescence in transfected mammalian cells in the presence of caffeic acid; type: cell-based; conditions: gene set expressing nnLuz_WT, mcitHispS, nnCPH, and NpgA
# Description: In different sets of experiments, HEK293NT or HEK293 cell lines were seeded in 96-well plates (ibidi, ibiTreat μ-Plate 96 Well Black). Cells were transfected with a mixture of the five plasmids that encoded variants of nnLuz, and nnH3H, along with nnHispS or mcitHispS, nnCPH, and NpgA by PolyFect Transfection Reagent (QIAGEN) according to the manufacturer's protocol, using 2 μl PolyFect per well and a mixture of plasmids containing 44 ng of plasmid expressing nnLuz, and equivalent amounts of the other four plasmids according to their size. Transfected cells were grown in DMEM (PanEco) supplemented with 10% fetal bovine serum (HyClone), 4 mM L-glutamine, 10 U/ml penicillin and 10 µg/ml streptomycin, at 37° C. and 5% CO2. Twenty-four hours after transfection, the medium was changed to 25 μM or 100 μM caffeic acid solution (0.1% DMSO in DPBS) and luminescence was imaged for 23 minutes by IVIS Spectrum CT (PerkinElmer) at 37° C. every 9 seconds with open filter, binning of 16 and exposure of 5 seconds. The number of independent replicates is included in the figure's legends.
molecule,measurement,setting,value
"nnLuz_v4 (protein, listed as Neonothopanus nambi) MRSTISLSSLLERLSKLSSRSIAITCGVVLASAIAFPIIRRDYQTFLEVGPSYAPQNFRGYITVCVLSLFRQEQKGLAIYDRLPEKRRWLADLPFREGPRPSITSHIIQRQRTQLVDQEFATRELIDKVIPRVQARHTDKTFLSTSKFEFHAKAIFLLPSIPINDPLNIPSHDTVRRTKREIAHMHDYHDCSLHLALAPQDGKEVLKKGWGQRHPLAGPGVPGPPTEWTFLYAPRNEEEARVVEMIVEASIGYMTNDPAGKIVENAKGS",Km relative to nnLuz_WT,[1],similar
same,higher Vmax relative to nnLuz_WT,[1]; normalized to HiBiT,4.2 fold
same,reduction of luminescence after incubation at 40° C.,[2],no loss of activity
same,reduction of luminescence after incubation at 45° C.,[2],3 fold
same,bioluminescence relative to cells expressing nnLuz_WT,[3]; addition of 50 μM luciferin,greater bioluminescence
same,greater luminescence relative to nnLuz_WT,"[3]; combined with nnH3H_v2, mcitHispS and NpgA, caffeic acid",1.9 fold
"nnLuz_v3: N. nambi luciferase with substitutions T99P, T192S, A199P combined (SEQ ID NO: 2) (protein, listed as Neonothopanus nambi) MRINISLSSLFERLSKLSSRSIAITCGVVLASAIAFPIIRRDYQTFLEVGPSYAPQNFRGYIIVCVLSLFRQEQKGLAIYDRLPEKRRWLADLPFREGPRPSITSHIIQRQRTQLVDQEFATRELIDKVIPRVQARHTDKTFLSTSKFEFHAKAIFLLPSIPINDPLNIPSHDTVRRTKREIAHMHDYHDCSLHLALAPQDGKEVLKKGWGQRHPLAGPGVPGPPTEWTFLYAPRNEEEARVVEMIVEASIGYMTNDPAGKIVENAK",enzyme stability relative to unmodified parental luciferase,[4],greater enzyme stability
same,production of bioluminescence relative to parental nnLuz_WT,[5],substantially greater
same,production of bioluminescence relative to parental nnLuz,[6],substantially greater
"nnLuz_WT: parental luciferase derived from Neonothopanus nambi (SEQ ID NO: 1) (protein, listed as Neonothopanus nambi) MRINISLSSLFERLSKLSSRSIAITCGVVLASAIAFPIIRRDYQTFLEVGPSYAPQNFRGYIIVCVLSLFRQEQKGLAIYDRLPEKRRWLADLPFREGTRPSITSHIIQRQRTQLVDQEFATRELIDKVIPRVQARHTDKTFLSTSKFEFHAKAIFLLPSIPINDPLNIPSHDTVRRTKREIAHMHDYHDCTLHLALAAQDGKEVLKKGWGQRHPLAGPGVPGPPTEWTFLYAPRNEEEARVVEMIVEASIGYMTNDPAGKIVENAK",reduction of luminescence after incubation at 40° C.,[2],> 3 fold
same,reduction of luminescence after incubation at 45° C.,[2],100 fold
"nnH3H_v2: N. nambi hispidin hydroxylase with D37E, V181I, S323M, and M385K (SEQ ID NO: 6) (protein, listed as Neonothopanus nambi) MASFENSLSVLIVGAGLGGLAAAIALRRQGHVVKIYESSSFKAELGAGLAVPPNTLRSLQQLGCNTENLNGVDNLCFTAMGYDGSVGMMNNMTDYREAYGTSWIMVHRVDLHNELMRIALDPGGLGPPATLHLNHRVTFCDVDACTVTFTNGTTQSADLIVGADGIRSTIRRFVLEEDVTVPASGIVGFRWLVQADALDPYPELDWIVKKPPLGARLISTPQNPQSGVGLADRRTIIIYACRGGTMVNVLAVHDDERDQNTADWSVPASKDDLFRVFHDYHPRFRRLLELAQDINLWQMRVVPVLKKWVNKRVCLLGDAAHAMLPTLGQGFGMGLEDAVALGTLLPKGTTASQIETRLAVYEQLRKDRAEFVAAESYEEQYVPEKRGLYLRSKELRDRVMGYDIKVESEKVLETLLRSSNSA",greater luminescence compared with nnH3H_WT,[7],2.5 fold
same,bioluminescence relative to cells expressing nnH3H_WT and nnLuz_WT,"[3]; co-expressed with nnLuz_WT, addition of 100 μM hispidin",greater bioluminescence
same,greater luminescence relative to nnH3H_WT,"[3]; combined with nnLuz_WT, mcitHispS and NpgA, caffeic acid",3.9 fold

# — patent US20250075191A1, “MODIFIED BIOLUMINESCENT ENZYMES” (Light Bio, Inc., priority 2023, published 2025)
